In US11827699 (dated 2023):

T1: human FcγRIIa H131 (human, UniProt P12318)
T1 chain: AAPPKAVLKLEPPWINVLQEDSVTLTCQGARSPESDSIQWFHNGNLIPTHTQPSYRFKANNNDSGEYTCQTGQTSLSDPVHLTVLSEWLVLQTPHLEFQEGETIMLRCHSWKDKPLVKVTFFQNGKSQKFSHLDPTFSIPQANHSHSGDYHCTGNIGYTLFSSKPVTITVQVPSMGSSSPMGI

T2: human FcγRIa (human, UniProt P12314)
T2 chain: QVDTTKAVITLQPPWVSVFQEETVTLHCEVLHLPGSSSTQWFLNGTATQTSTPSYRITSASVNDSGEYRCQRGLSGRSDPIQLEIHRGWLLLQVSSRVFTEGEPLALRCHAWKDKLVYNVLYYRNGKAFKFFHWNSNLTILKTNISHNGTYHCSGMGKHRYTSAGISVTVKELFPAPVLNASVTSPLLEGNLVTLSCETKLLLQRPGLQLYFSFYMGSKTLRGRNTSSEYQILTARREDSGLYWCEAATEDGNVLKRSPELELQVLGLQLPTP

T3: human FcγRIIb (human, UniProt P31994)
T3 chain: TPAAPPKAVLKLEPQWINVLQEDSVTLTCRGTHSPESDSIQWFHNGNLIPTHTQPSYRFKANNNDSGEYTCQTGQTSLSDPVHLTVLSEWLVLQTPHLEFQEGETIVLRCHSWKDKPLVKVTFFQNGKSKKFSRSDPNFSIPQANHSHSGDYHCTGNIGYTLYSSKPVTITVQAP


Experiments:
Assay in all cases: SPR
human FcγRIIIa V158 = human FcγRIIIa V158 (human, UniProt P08637)
Sequence of human FcγRIIIa V158 (P08637 17-208 F176V): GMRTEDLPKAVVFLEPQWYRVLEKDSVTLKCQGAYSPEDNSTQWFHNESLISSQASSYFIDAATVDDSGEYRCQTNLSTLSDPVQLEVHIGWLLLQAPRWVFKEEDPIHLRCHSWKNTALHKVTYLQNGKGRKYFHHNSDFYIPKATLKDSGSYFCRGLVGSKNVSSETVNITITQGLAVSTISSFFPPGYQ

human FcγRIIa H131 = target: T1, human FcγRIIa H131
human FcγRIa = target: T2, human FcγRIa
human FcγRIIb = target: T3, human FcγRIIb

Binder	Kd (human FcγRIIIa V158)	Kd (human FcγRIIa H131)	Kd (human FcγRIa)	Kd (human FcγRIIb)
IL6R-BP493 (antibody) chain 1: QVQLQESGPGLVKPSETLSLTCAVSGHSISHDHAWSWVRQPPGEGLEWIGFISYSGITNYNPSLQGRVTISRDNSKNTLYLQMNSLRAEDTAVYYCARSLARTTAMDYWGEGTLVTVSSASTKGPSVFPLAPSSKSTSGGTAALGCLVKDYFPEPVTVSWNSGALTSGVHTFPAVLQSSGLYSLSSVVTVPSSSLGTQTYICNVNHKPSNTKVDKKVEPKSCDKTHTCPPCPAPELLGGDSVFLFPPKPKDTLMISRTPEVTCVVIDVAEEDGEVKFNWYVDGVEVHNAKTKPREEQDNSTYRVVSVLTVLHQDWLNGKEYKCKVSNKALPAPIEKTISKAKGQPREPQVYTLPPSRDELTKNQVSLTCLVKGFYPSDIAVEWESNGQPENNYKTTPPVLDSDGSFFLYSKLTVDKSRWQQGNVFSCSVMHEALHNHYTQESLSLSP chain 2: not shown	35 µM	19 µM	0.00082 µM	0.021 µM
IL6R-BP430 (antibody) chain 1: QVQLQESGPGLVKPSETLSLTCAVSGHSISHDHAWSWVRQPPGEGLEWIGFISYSGITNYNPSLQGRVTISRDNSKNTLYLQMNSLRAEDTAVYYCARSLARTTAMDYWGEGTLVTVSSASTKGPSVFPLAPSSKSTSGGTAALGCLVKDYFPEPVTVSWNSGALTSGVHTFPAVLQSSGLYSLSSVVTVPSSSLGTQTYICNVNHKPSNTKVDKKVEPKSCDKTHTCPPCPAPDLLGDDSVFLFPPKPKDTLMISRTPEVTCVVVDLGEEDGEVKFNWYVDGVEVHNAKTKPREEQYNSTYRVVSVLTVLHQDWLNGKEYKCKVSNKALPRPIEKTISKAKGQPREPQVYTLPPSRDELTKNQVSLTCLVKGFYPSDIAVEWESNGQPENNYKTTPPVLDSDGSFFLYSKLTVDKSRWQQGNVFSCSVMHEALHNHYTQESLSLSP chain 2: not shown	–	38 µM	–	–
IL6R-BP495 (antibody) chain 1: QVQLQESGPGLVKPSETLSLTCAVSGHSISHDHAWSWVRQPPGEGLEWIGFISYSGITNYNPSLQGRVTISRDNSKNTLYLQMNSLRAEDTAVYYCARSLARTTAMDYWGEGTLVTVSSASTKGPSVFPLAPSSKSTSGGTAALGCLVKDYFPEPVTVSWNSGALTSGVHTFPAVLQSSGLYSLSSVVTVPSSSLGTQTYICNVNHKPSNTKVDKKVEPKSCDKTHTCPPCPAPELLGDDSVFLFPPKPKDTLMISRTPEVTCVVVDVGEEDGEVKFNWYVDGVEVHNAKTKPREEQDNSTYRVVSVLTVLHQDWLNGKEYKCKVSNKALPRPIEKTISKAKGQPREPQVYTLPPSRDELTKNQVSLTCLVKGFYPSDIAVEWESNGQPENNYKTTPPVLDSDGSFFLYSKLTVDKSRWQQGNVFSCSVMHEALHNHYTQESLSLSP chain 2: not shown	33 µM	12 µM	0.0083 µM	0.0097 µM
IL6R-BP501 (antibody) chain 1: QVQLQESGPGLVKPSETLSLTCAVSGHSISHDHAWSWVRQPPGEGLEWIGFISYSGITNYNPSLQGRVTISRDNSKNTLYLQMNSLRAEDTAVYYCARSLARTTAMDYWGEGTLVTVSSASTKGPSVFPLAPSSKSTSGGTAALGCLVKDYFPEPVTVSWNSGALTSGVHTFPAVLQSSGLYSLSSVVTVPSSSLGTQTYICNVNHKPSNTKVDKKVEPKSCDKTHTCPPCPAPELLGDDSVFLFPPKPKDTLMISRTPEVTCVVIDVAEEDGEVKFNWYVDGVEVHNAKTKPREEQYNSTYRVVSVLTVLHQDWLNGKEYKCKVSNKALPAPIEKTISKAKGQPREPQVYTLPPSRDELTKNQVSLTCLVKGFYPSDIAVEWESNGQPENNYKTTPPVLDSDGSFFLYSKLTVDKSRWQQGNVFSCSVMHEALHNHYTQESLSLSP chain 2: not shown	19 µM	14 µM	0.0021 µM	0.025 µM
IL6R-BP266 (antibody) chain 1: QVQLQESGPGLVKPSETLSLTCAVSGHSISHDHAWSWVRQPPGEGLEWIGFISYSGITNYNPSLQGRVTISRDNSKNTLYLQMNSLRAEDTAVYYCARSLARTTAMDYWGEGTLVTVSSASTKGPSVFPLAPSSKSTSGGTAALGCLVKDYFPEPVTVSWNSGALTSGVHTFPAVLQSSGLYSLSSVVTVPSSSLGTQTYICNVNHKPSNTKVDKKVEPKSCDKTHTCPPCPAPDLLGDDSVFLFPPKPKDTLMISRTPEVTCVVVDVSEEDGEVKFNWYVDGVEVHNAKTKPREEQYNSTYRVVSVLTVLHQDWLNGKEYKCKVSNKALPRPIEKTISKAKGQPREPQVYTLPPSRDELTKNQVSLTCLVKGFYPSDIAVEWESNGQPENNYKTTPPVLDSDGSFFLYSKLTVDKSRWQQGNVFSCSVMHEALHNHYTQESLSLSP chain 2: not shown	40 µM	13 µM	–	–
IL6R-BP510 (antibody) chain 1: QVQLQESGPGLVKPSETLSLTCAVSGHSISHDHAWSWVRQPPGEGLEWIGFISYSGITNYNPSLQGRVTISRDNSKNTLYLQMNSLRAEDTAVYYCARSLARTTAMDYWGEGTLVTVSSASTKGPSVFPLAPSSKSTSGGTAALGCLVKDYFPEPVTVSWNSGALTSGVHTFPAVLQSSGLYSLSSVVTVPSSSLGTQTYICNVNHKPSNTKVDKKVEPKSCDKTHTCPPCPAPELLGDDSVFLFPPKPKDTLMISRTPEVTCVVIDVAEEDGPVKFNWYVDGVEVHNAKTKPREEQYNSTYRVVSVLTVLHQDWLNGKEYKCKVSNKALPRPIEKTISKAKGQPREPQVYTLPPSRDELTKNQVSLTCLVKGFYPSDIAVEWESNGQPENNYKTTPPVLDSDGSFFLYSKLTVDKSRWQQGNVFSCSVMHEALHNHYTQESLSLSP chain 2: not shown	25 µM	4 µM	0.006 µM	0.0038 µM
IL6R-BP435 (antibody) chain 1: QVQLQESGPGLVKPSETLSLTCAVSGHSISHDHAWSWVRQPPGEGLEWIGFISYSGITNYNPSLQGRVTISRDNSKNTLYLQMNSLRAEDTAVYYCARSLARTTAMDYWGEGTLVTVSSASTKGPSVFPLAPSSKSTSGGTAALGCLVKDYFPEPVTVSWNSGALTSGVHTFPAVLQSSGLYSLSSVVTVPSSSLGTQTYICNVNHKPSNTKVDKKVEPKSCDKTHTCPPCPAPDLLGDDSVFLFPPKPKDTLMISRTPEVTCVVVDVSDEDGEVKFNWYVDGVEVHNAKTKPREEQDNSTYRVVSVLTVLHQDWLNGKEYKCKVSNAALPRPTEKTISKAKGQPREPQVYTLPPSRDELTKNQVSLTCLVKGFYPSDIAVEWESNGQPENNYKTTPPVLDSDGSFFLYSKLTVDKSRWQQGNVFSCSVMHEALHNHYTQESLSLSP chain 2: not shown	–	–	0.001 µM	–
IL6R-BP423 (antibody) chain 1: QVQLQESGPGLVKPSETLSLTCAVSGHSISHDHAWSWVRQPPGEGLEWIGFISYSGITNYNPSLQGRVTISRDNSKNTLYLQMNSLRAEDTAVYYCARSLARTTAMDYWGEGTLVTVSSASTKGPSVFPLAPSSKSTSGGTAALGCLVKDYFPEPVTVSWNSGALTSGVHTFPAVLQSSGLYSLSSVVTVPSSSLGTQTYICNVNHKPSNTKVDKKVEPKSCDKTHTCPPCPAPDLLGDDSVFLFPPKPKDTLMISRTPEVTCVVVDVAEEDGEVKFNWYVDGVEVHNAKTKPREEQYNSTYRVVSVLTVLHQDWLNGKEYKCKVSNKALPRPIEKTISKAKGQPREPQVYTLPPSRDELTKNQVSLTCLVKGFYPSDIAVEWESNGQPENNYKTTPPVLDSDGSFFLYSKLTVDKSRWQQGNVFSCSVMHEALHNHYTQESLSLSP chain 2: not shown	–	2 µM	–	–
IL6R-BP436 (antibody) chain 1: QVQLQESGPGLVKPSETLSLTCAVSGHSISHDHAWSWVRQPPGEGLEWIGFISYSGITNYNPSLQGRVTISRDNSKNTLYLQMNSLRAEDTAVYYCARSLARTTAMDYWGEGTLVTVSSASTKGPSVFPLAPSSKSTSGGTAALGCLVKDYFPEPVTVSWNSGALTSGVHTFPAVLQSSGLYSLSSVVTVPSSSLGTQTYICNVNHKPSNTKVDKKVEPKSCDKTHTCPPCPAPDLLGDDSVFLFPPKPKDTLMISRTPEVTCVVVDVAEEDGEVKFNWYVDGVEVHNAKTKPREEQDNSTYRVVSVLTVLHQDWLNGKEYKCKVSNKALPRPTEKTISKAKGQPREPQVYTLPPSRDELTKNQVSLTCLVKGFYPSDIAVEWESNGQPENNYKTTPPVLDSDGSFFLYSKLTVDKSRWQQGNVFSCSVMHEALHNHYTQESLSLSP chain 2: not shown	23 µM	–	–	–
IL6R-BP426 (antibody) chain 1: QVQLQESGPGLVKPSETLSLTCAVSGHSISHDHAWSWVRQPPGEGLEWIGFISYSGITNYNPSLQGRVTISRDNSKNTLYLQMNSLRAEDTAVYYCARSLARTTAMDYWGEGTLVTVSSASTKGPSVFPLAPSSKSTSGGTAALGCLVKDYFPEPVTVSWNSGALTSGVHTFPAVLQSSGLYSLSSVVTVPSSSLGTQTYICNVNHKPSNTKVDKKVEPKSCDKTHTCPPCPAPDLLGDDSVFLFPPKPKDTLMISRTPEVTCVVVDVAEDDGEVKFNWYVDGVEVHNAKTKPREEQYNSTYRVVSVLTVLHQDWLNGKEYKCKVSNKALPRPIEKTISKAKGQPREPQVYTLPPSRDELTKNQVSLTCLVKGFYPSDIAVEWESNGQPENNYKTTPPVLDSDGSFFLYSKLTVDKSRWQQGNVFSCSVMHEALHNHYTQESLSLSP chain 2: not shown	–	19 µM	0.001 µM	–
